# B1: Chromatin-associated protein swi6 (Schizosaccharomyces pombe (strain ATCC 38366 / 972)), P40381 (parent)
# chain: MKKGGVRSYRRSSTSKRSVIDDDSEPELPSMTKEAIASHKADSGSSDNEVESDHESKSSSKKLKENAKEEEGGEEEEEDEYVVEKVLKHRMARKGGGYEYLLKWEGYDDPSDNTWSSEADCSGCKQLIEAYWNEHGGRPEPSKRKRTARPKKPEAKEPSPKSRKTDEDKHDKDSNEKIEDVNEKTIKFADKSQEEFNENGPPSGQPNGHIESDNESKSPSQKESNESEDIQIAETPSNVTPKKKPSPEVPKLPDNRELTVKQVENYDSWEDLVSSIDTIERKDDGTLEIYLTWKNGAISHHPSTITNKKCPQKMLQFYESHLTFRENE
# partner: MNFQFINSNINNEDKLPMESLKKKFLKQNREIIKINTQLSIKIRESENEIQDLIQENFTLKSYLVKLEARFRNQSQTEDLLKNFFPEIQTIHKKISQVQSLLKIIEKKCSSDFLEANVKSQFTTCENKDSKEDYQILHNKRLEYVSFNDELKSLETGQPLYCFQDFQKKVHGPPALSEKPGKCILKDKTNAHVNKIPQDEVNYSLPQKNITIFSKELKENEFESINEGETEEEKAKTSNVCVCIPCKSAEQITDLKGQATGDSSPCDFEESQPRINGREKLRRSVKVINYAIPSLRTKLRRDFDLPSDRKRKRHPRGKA
# B2: Shugoshin-1 (Schizosaccharomyces pombe (strain ATCC 38366 / 972)), Q9P7A0 (parent)
# chain: B1 partner
# partner: B1 chain
# Variants of: B1
# Conditions: with sgo1_schpo sgo1, Q9P7A0
row,effect of a mutation on the interaction,Variant
1,disrupting interaction strength,MKKGGVRSYRRSSTSKRSVIDDDSEPELPSMTKEAIASHKADSGSSDNEVESDHESKSSSKKLKENAKEEEGGEEEEEDEYVVEKVLKHRMARKGGGYEYLLKWEGYDDPSDNTWSSEADCSGCKQLIEAYWNEHGGRPEPSKRKRTARPKKPEAKEPSPKSRKTDEDKHDKDSNEKIEDVNEKTIKFADKSQEEFNENGPPSGQPNGHIESDNESKSPSQKESNESEDIQIAETPSNVTPKKKPSPEVPKLPDNRELTVKQVENYDSWEDLVSSIDTIERKDDGTLEIYLTWKNGAISHHPSTITNKKCPQKMLQFYESHLTARENE [F324A]

# Variants of: B2
# Conditions: with swi6_schpo swi6, P40381
row,effect of a mutation on the interaction,Variant
1,disrupting interaction strength,MNFQFINSNINNEDKLPMESLKKKFLKQNREIIKINTQLSIKIRESENEIQDLIQENFTLKSYLVKLEARFRNQSQTEDLLKNFFPEIQTIHKKISQVQSLLKIIEKKCSSDFLEANVKSQFTTCENKDSKEDYQILHNKRLEYVSFNDELKSLETGQPLYCFQDFQKKVHGPPALSEKPGKCILKDKTNAHVNKIPQDEVNYSLPQKNITIFSKELKENEFESINEGETEEEKAKTSNVCECIPCKSAEQITDLKGQATGDSSPCDFEESQPRINGREKLRRSVKVINYAIPSLRTKLRRDFDLPSDRKRKRHPRGKA [V242E]

# From IntAct's records for PubMed 18716626
